We go through one protein from US8357518B2, “Thermostable enzymes for the hydrolysis of mannan-containing polysaccharides” (The Board of Trustees of the University of Illinois, priority 2010, dated 2013).

Holding throughout (assay): Catalytic efficiency with oligosaccharides, HPAEC (Man5A-TM2)
Type in all cases: biochemical, Caldanaerobius polysaccharolyticus
Conditions in all cases: other: Man5A-TM2 0.3 μM, oligosaccharide 30 μM, citrate buffer 50 mM, pH 5.5, 5 min, triplicate

Substrate in data set [1]: OC[C@H]1O[C@@H](O[C@H]2[C@H](O)[C@@H](O)[C@H](O[C@H]3[C@H](O)[C@@H](O)[C@H](O[C@H]4[C@H](O)[C@@H](O)C(O)O[C@@H]4CO)O[C@@H]3CO)O[C@@H]2CO)[C@H](O)[C@@H](O)[C@@H]1O
How it is done:
(§1) Cloning, expression, and purification of Man5A-TM1, Man5A-TM2 and Man5B. C. polysaccharolyticus was cultured in TYG medium and DNA was isolated from mid-log cultures and purified using the Qiagen DNeasy Blood and Tissue kit with an integrated RNase treatment step. The genome of C. polysaccharolyticus was partially sequenced by the W. M. Keck Biotechnology Center at the University of Illinois at Urbana-Champaign. A Newbler assembly was generated which is comprised of ½ plate of FLX PE 454 data and ½ plate of 8 kb paired-end GSFLX Titanium data using a Genome Sequencer instrument from 454 Life Sciences (Branford, Conn.). The partial genome sequence was uploaded onto the Rapid Annotation using Subsystem Technology (RAST) server (Aziz et al., BMC Genomics, 9:75, 2008). Auto-annotation of the C. polysaccharolyticus partial genome sequence identified ORF0760 as a gene predicted to encode a bifunctional β-D-mannanase/endoglucanase (Man5B). Man5A was previously identified in a recombinant phage library of C. polysaccharolyticus genomic DNA, which was screened for endoglucanase activity (Cann et al., J Bacteriol, 181:1643, 1999) and the full sequence of this gene was also identified in the partial genome sequence for C. polysaccharolyticus.
(§2) The DNA sequence corresponding to man5B was amplified by the PicoMaxx high fidelity PCR kit using genomic DNA as the template with the primer set Man5B-Forward and Man5B-Reverse (Table 1-1). The primers were engineered to incorporate a 5′-[…] (SEQ ID NO: 54) extension in Man5B-F and a 5′-[…] (SEQ ID NO: 55) extension in Man5B-R, which facilitated subsequent directional cloning. The resultant man5B amplicon was then digested with T4 DNA polymerase exonuclease activity, annealed with a similarly digested pET-46b vector and introduced into E. coli JM109 by electroporation. Man5A-TM1 was amplified using genomic DNA as template with primers Man5A-TM1-F and Man5A-TM1-R (Table 1-1). The primer sets for Man5A-TM1 and Man5A-TM2 were designed to include 5′-NdeI and 3′-XhoI restriction sites for subsequent directional cloning. The resulting amplicons were then cloned into the pGEM-T vector via TA-cloning and subcloned in-frame with the hexahistidine (His6) encoding sequence of a modified pET-28a expression vector via its NdeI-XhoI polylinker site. The truncated protein Man5A-TM2 originally named ManA-SLH-CBD was cloned as described in a previous study (Cann et al., J Bacteriol, 181:1643, 1999). Expression of each of the resulting gene constructs yielded fusion proteins containing an N-terminal polyhistidine tag sequence to facilitate affinity purification via metal chelate chromatography. The resulting plasmid constructs pET46-Man5B, pET28a-Man5A-TM1, and pET-28a-Man5A-TM2 were sequenced to confirm the integrity of the cloned genes (W. M. Keck Center for Comparative and Functional Genomics at the University of Illinois at Urbana-Champaign).
(§3) The plasmid constructs were then introduced into E. coli BL-21 CodonPlus (DE3) RIL competent cells by heat shock, and grown overnight in lysogeny broth (LB) agar medium supplemented with ampicillin (100 μg/mL) and chloramphenicol (50 μg/mL) at 37° C. After 12 h, single colonies were selected and used to inoculate fresh LB (10 mL) supplemented with the antibiotics above at the same concentrations, followed by culturing with aeration for 8 h at 37° C. The pre-cultures were then inoculated into fresh LB (1 L) supplemented with ampicillin and chloramphenicol and the cultures were incubated at 37° C. with vigorous aeration (225 rpm/min). The cultures were grown to an optical density of 0.3 at 600 nm, and the temperature was shifted to 16° C. and gene expression was induced by the addition of 0.1 mM isopropyl β-D-thiogalactopyranoside (IPTG). […]

Substrate in data set [2]: OC[C@H]1O[C@@H](O[C@H]2[C@H](O)[C@@H](O)[C@H](O[C@H]3[C@H](O)[C@@H](O)[C@H](O[C@H]4[C@H](O)[C@@H](O)[C@H](O[C@H]5[C@H](O)[C@@H](O)C(O)O[C@@H]5CO)O[C@@H]4CO)O[C@@H]3CO)O[C@@H]2CO)[C@H](O)[C@@H](O)[C@@H]1O
The method, then:
as §1, §2, §3

Substrate in data set [3]: OC[C@H]1O[C@@H](O[C@H]2[C@H](O)[C@@H](O)[C@H](O[C@H]3[C@H](O)[C@@H](O)[C@H](O[C@H]4[C@H](O)[C@@H](O)[C@H](O[C@H]5[C@H](O)[C@@H](O)[C@H](O[C@H]6[C@H](O)[C@@H](O)C(O)O[C@@H]6CO)O[C@@H]5CO)O[C@@H]4CO)O[C@@H]3CO)O[C@@H]2CO)[C@H](O)[C@@H](O)[C@@H]1O
How it is done:
as §1, §2, §3

Substrate in data set [4]: OC[C@H]1O[C@@H](O[C@H]2[C@H](O)[C@H](O)[C@H](O[C@H]3[C@H](O)[C@H](O)[C@H](O[C@H]4[C@H](O)[C@H](O)C(O)O[C@@H]4CO)O[C@@H]3CO)O[C@@H]2CO)[C@@H](O)[C@@H](O)[C@@H]1O
How it is done: as §1, §2, §3

Substrate in data set [5]: OC[C@H]1O[C@@H](O[C@H]2[C@H](O)[C@H](O)[C@H](O[C@H]3[C@H](O)[C@H](O)[C@H](O[C@H]4[C@H](O)[C@H](O)[C@H](O[C@H]5[C@H](O)[C@H](O)C(O)O[C@@H]5CO)O[C@@H]4CO)O[C@@H]3CO)O[C@@H]2CO)[C@@H](O)[C@@H](O)[C@@H]1O
The method, then: as §1, §2, §3

Substrate in data set [6]: OC[C@H]1O[C@@H](O[C@H]2[C@H](O)[C@H](O)[C@H](O[C@H]3[C@H](O)[C@H](O)[C@H](O[C@H]4[C@H](O)[C@H](O)[C@H](O[C@H]5[C@H](O)[C@H](O)[C@H](O[C@H]6[C@H](O)[C@H](O)C(O)O[C@@H]6CO)O[C@@H]5CO)O[C@@H]4CO)O[C@@H]3CO)O[C@@H]2CO)[C@@H](O)[C@@H](O)[C@@H]1O
The method, then: as §1, §2, §3

B1: Caldanaerobius polysaccharolyticus endo-β-mannanase Man5A truncation mutant Man5A-TM2, SEQ ID NO: 29 (Caldanaerobius polysaccharolyticus) (protein)
chain: AGTSGDGRFHVVGNKIVDPDGKDFIIKGVNIQGYRSWEKRSVLQDVHLIADVWKFNTVRLNCFIGQNNWGEGTGANNDIDAIIKAFTAKKVVVEIDLHDTTGYPPLSNPPPAPGQPSLDQAIAWFKELAAKYKDNPYVWFNTMNEPGSSTAPLDPQWKVANEEIIKAIRSTGADNIIVVDGWSYANEGIEQNTPTVDEKRSAVLTYGQDLLNADSAKNTIFAFHNYNEGDIQKKVEDYIDRANAKGLYVFMEEYGKDYSDAAKEGVKSGLQAVMNKGAGRIYWNWDGYDLYDLTSGTGRGSGWEINKTDGSKPTNLSWVGDKIWDDNHGITPTFDDQNPKVDLALERLIANNNGFKAGDKVQFTTFLRNSGDLPIGKDSKVVVKFYVDGVQLGDPVEISGGIAVGQRIPVTSPELTVSKTDFTVKAVIDSSSTYADGAEDAVIENNWIEAAFNSTAPSSGYELVVTGIKITPDTVKEGDYVQAQVTVANQGPEATPVTNIIGWFYVNGYYYTLDDAAKSCAEQDNVTLKPGESITLSTKVKYRAAAPFNFSFVLENLYADDQNQSNNSITVNVPVK
As to B1, the specificity constant (kcat/Km) (usually the second-order rate constant that governs catalysis at low substrate concentration) in data set [1] came to 1800 ± 500 M⁻¹ s⁻¹; in data set [2], 2200 ± 300 M⁻¹ s⁻¹; in data set [3], 25000 ± 8000 M⁻¹ s⁻¹; in data set [4] it was 11000 ± 1000 M⁻¹ s⁻¹; in data set [5], 12000 ± 2000 M⁻¹ s⁻¹; in data set [6], 28000 ± 8000 M⁻¹ s⁻¹.
